Reference: patent publication US20260242478A1 (published 2026)
Where no end group is shown, it is not given here.

Tests used:
[1] = target: T1, Anti-CD28 Fab (SEQ ID NOs: 696, 697); experiment: phage binding ELISA on captured anti-CD28 Fab; competitor: CD28 antigen at saturating concentration
T1 construct: Biotinylated and captured on neutravidin coated plates in the phage ELISA
T1 sequence (VH, as listed by the source, chain 1 of 2): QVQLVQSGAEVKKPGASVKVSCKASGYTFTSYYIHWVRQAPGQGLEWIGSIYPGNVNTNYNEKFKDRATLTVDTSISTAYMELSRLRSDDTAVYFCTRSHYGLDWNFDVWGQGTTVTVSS
T1 sequence (VL, as listed by the source, chain 2 of 2): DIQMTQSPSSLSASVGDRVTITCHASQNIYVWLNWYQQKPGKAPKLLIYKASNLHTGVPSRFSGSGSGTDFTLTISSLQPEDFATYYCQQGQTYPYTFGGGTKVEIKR
Experimental: (§1) After panning, phage infected bacteria were plated out and colonies picked into 96 well blocks. Clonal phage was then amplified and separated from bacterial cells via centrifugation.
(§2) Clonal phage were harvested as crude supematants and screened via standard ELISAs. […] Prior to the addition of clonal phage, wells were incubated with blocking buffer and CD28 antigen or blocking buffer alone. Without washing or aspirating, clonal phage supematants were then added to the wells and incubated for a short time. Wells were then washed followed by detection of bound phage using a horse radish conjugated anti-M13 antibody. Clonal phage of interest were then sent for sequence analysis.

[2] = target: T1, Anti-CD28 Fab (SEQ ID NOs: 696, 697); experiment: phage binding ELISA; biotinylated anti-CD28 Fab on neutravidin plate, bound phage detected with anti-M13 HRP;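 note: crude supernatants of clonal phage screened, wells pretreated with blocking buffer with or without CD28 antigen before brief phage incubation, washed, then bound phage detected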
Experimental: as §1, §2

[3] = target: T2, Anti-CD28 Fab (SEQ ID NOs: 696, 697); experiment: phage ELISA; captured anti-CD28 Fab pre-incubated with CD28 antigen as competitor, anti-M13 HRP;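 note: crude clonal phage supernatants added without washing after CD28 pre-incubation, bound phage detected with HRP anti-M13 antibody, reference wells got blocking buffer lacking CD28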
T2 construct: In the phage ELISA the Fab was biotinylated and captured on neutravidin coated plates
T2 sequence (VH, as listed by the source, chain 1 of 2): as the sequence (VH, as listed by the source, chain 1 of 2) above
T2 sequence (VL, as listed by the source, chain 2 of 2): as the sequence (VL, as listed by the source, chain 2 of 2) above

[4] = target: T2, Anti-CD28 Fab (SEQ ID NOs: 696, 697); experiment: phage ELISA; biotinylated anti-CD28 Fab on neutravidin plate, clonal phage supernatant, anti-M13 HRP
[5] = target: T3, Anti-CD28 Fab (SEQ ID NOs: 696, 697); experiment: phage binding ELISA on plate-captured anti-CD28 Fab pre-incubated with CD28 antigen as competitor
T3 construct: In the phage ELISA the Fab was biotinylated and captured on neutravidin coated plates
T3 sequence (VH, as listed by the source, chain 1 of 2): as the sequence (VH, as listed by the source, chain 1 of 2) above
T3 sequence (VL, as listed by the source, chain 2 of 2): as the sequence (VL, as listed by the source, chain 2 of 2) above
Experimental: as §1, §2

[6] = target: T3, Anti-CD28 Fab (SEQ ID NOs: 696, 697); experiment: phage binding ELISA; clonal phage on plate-captured biotinylated anti-CD28 Fab, anti-M13 HRP detection
Experimental: as §1, §2

B1: Phage-1208 (peptide)
peptide: YCDGHLAEYIQKCL
notes: tested as crude clonal phage supernatant
For B1, the “Anti-CD28 Fab signal in the presence of CD28” value [1] was 0.08 and the “Anti-CD28 Fab signal” value [2] was 1.04.

B2: Phage-1220 (peptide)
peptide: YCDGHVGAYMWKCL
notes: as for B1
With B2 the “Anti-CD28 Fab signal in the presence of CD28” value [1] was 0.06 and the “Anti-CD28 Fab signal” value [2] was 0.99.

B3: Phage-1206 (peptide)
peptide: YCEGHSVEYILKCL
modifications: cysteine pairing not given here; also: displayed on phage by fusion to pIII, linker and pIII sequence not given here
For B3, the “Anti-CD28 Fab signal in the presence of CD28 (phage binding ELISA)” value [3] was 0.06 and the “Anti-CD28 Fab signal (phage binding ELISA)” value [4] was 1.04.

B4: Phage-1229 (peptide)
peptide: YCDGHLPEYMLKCL
modifications: cysteine pairing not given here; also: displayed on phage by fusion to pIII, linker and pIII sequence not given here
notes: Tested as clonal phage supernatant
For B4, the “Anti-CD28 Fab signal in the presence of CD28 (phage binding ELISA)” value [5] was 0.09 and the “Anti-CD28 Fab signal (phage binding ELISA)” value [6] was 0.96.

B5: Phage-1211 (peptide)
peptide: YCEGHIEQYMRKCL
notes: as for B1
B5 was tested, and the “Anti-CD28 Fab signal in the presence of CD28” value [1] was 0.06 and the “Anti-CD28 Fab signal” value [2] was 1.01.

B6: Phage-1231 (peptide)
peptide: YCAGHTPEYLDKCL
modifications: cysteine pairing not given here; also: displayed on phage by fusion to pIII, linker and pIII sequence not given here
notes: as for B4
With B6 the “Anti-CD28 Fab signal in the presence of CD28 (phage binding ELISA)” value [5] was 0.06 and the “Anti-CD28 Fab signal (phage binding ELISA)” value [6] was 0.95.

B7: Phage-1205 (peptide)
peptide: YCDGHDARYMTKCL
modifications: cysteine pairing not given here; also: displayed on phage by fusion to pIII, linker and pIII sequence not given here
With B7 the “Anti-CD28 Fab signal in the presence of CD28 (phage binding ELISA)” value [3] was 0.09 and the “Anti-CD28 Fab signal (phage binding ELISA)” value [4] was 1.04.

B8: Phage-1221 (peptide)
peptide: YCEGHSAIYIAKCM
modifications: cysteine pairing not given here; also: displayed on phage by fusion to pIII, linker and pIII sequence not given here
notes: as for B4
In the case of B8, the “Anti-CD28 Fab signal in the presence of CD28 (phage binding ELISA)” value [5] is reported as 0.11 and the “Anti-CD28 Fab signal (phage binding ELISA)” value [6] is reported as 0.98.

B9: Phage-1228 (peptide)
peptide: YCDGHSKEYMSKCL
modifications: cysteine pairing not given here; also: displayed on phage by fusion to pIII, linker and pIII sequence not given here
notes: as for B4
In the case of B9, the “Anti-CD28 Fab signal in the presence of CD28 (phage binding ELISA)” value [5] is reported as 0.07 and the “Anti-CD28 Fab signal (phage binding ELISA)” value [6] is reported as 0.96.

B10: Phage-1210 (peptide)
peptide: YCAGHSQVYMWKCL
notes: as for B1
In the case of B10, the “Anti-CD28 Fab signal in the presence of CD28” value [1] is reported as 0.06 and the “Anti-CD28 Fab signal” value [2] is reported as 1.02.

B11: Phage-1227 (peptide)
peptide: YCEGHVPEYLVKCL
modifications: cysteine pairing not given here; also: displayed on phage by fusion to pIII, linker and pIII sequence not given here
notes: as for B4
B11 was tested, and the “Anti-CD28 Fab signal in the presence of CD28 (phage binding ELISA)” value [5] was 0.06 and the “Anti-CD28 Fab signal (phage binding ELISA)” value [6] was 0.96.

B12: Phage-1222 (peptide)
peptide: YCFGHFPEYMAKCL
modifications: cysteine pairing not given here; also: displayed on phage by fusion to pIII, linker and pIII sequence not given here
notes: as for B4
With B12 the “Anti-CD28 Fab signal in the presence of CD28 (phage binding ELISA)” value [5] was 0.07 and the “Anti-CD28 Fab signal (phage binding ELISA)” value [6] was 0.98.

B13: Phage-1225 (peptide)
peptide: YCAGHAAEYMWKCL
modifications: cysteine pairing not given here; also: displayed on phage by fusion to pIII, linker and pIII sequence not given here
notes: as for B4
For B13, the “Anti-CD28 Fab signal in the presence of CD28 (phage binding ELISA)” value [5] was 0.06 and the “Anti-CD28 Fab signal (phage binding ELISA)” value [6] was 0.97.

B14: Phage-1218 (peptide)
peptide: YCEGHIEPYMQKCL
notes: as for B1
With B14 the “Anti-CD28 Fab signal in the presence of CD28” value [1] was 0.06 and the “Anti-CD28 Fab signal” value [2] was 0.99.

B15: Phage-1216 (peptide)
peptide: YCDGHLEVYMSKCL
notes: as for B1
In the case of B15, the “Anti-CD28 Fab signal in the presence of CD28” value [1] is reported as 0.09 and the “Anti-CD28 Fab signal” value [2] is reported as 1.

B16: Phage-1213 (peptide)
peptide: YCEGHLREYMLKCL
notes: as for B1
In the case of B16, the “Anti-CD28 Fab signal in the presence of CD28” value [1] is reported as 0.07 and the “Anti-CD28 Fab signal” value [2] is reported as 1.01.

B17: Phage-1217 (peptide)
peptide: YCEGHRPEYMANCL
notes: as for B1
In the case of B17, the “Anti-CD28 Fab signal in the presence of CD28” value [1] is reported as 0.06 and the “Anti-CD28 Fab signal” value [2] is reported as 1.

B18: Phage-1209 (peptide)
peptide: YCAGHSSEYLQKCL
notes: as for B1
In the case of B18, the “Anti-CD28 Fab signal in the presence of CD28” value [1] is reported as 0.09 and the “Anti-CD28 Fab signal” value [2] is reported as 1.03.

B19: Phage-1207 (peptide)
peptide: YCEGHSSAYMRKCL
modifications: cysteine pairing not given here; also: displayed on phage by fusion to pIII, linker and pIII sequence not given here
With B19 the “Anti-CD28 Fab signal in the presence of CD28 (phage binding ELISA)” value [3] was 0.06 and the “Anti-CD28 Fab signal (phage binding ELISA)” value [4] was 1.04.

B20: Phage-1215 (peptide)
peptide: YCEGHSWIYIAKCL
notes: as for B1
In the case of B20, the “Anti-CD28 Fab signal in the presence of CD28” value [1] is reported as 0.07 and the “Anti-CD28 Fab signal” value [2] is reported as 1.

B21: Phage-1214 (peptide)
peptide: YCEGHSSVYLWKCL
notes: as for B1
With B21 the “Anti-CD28 Fab signal in the presence of CD28” value [1] was 0.05 and the “Anti-CD28 Fab signal” value [2] was 1.

B22: Phage-1232 (peptide)
peptide: YCEGHDIRYMMKCL
modifications: cysteine pairing not given here; also: displayed on phage by fusion to pIII, linker and pIII sequence not given here
notes: as for B4
B22 was tested, and the “Anti-CD28 Fab signal in the presence of CD28 (phage binding ELISA)” value [5] was 0.08 and the “Anti-CD28 Fab signal (phage binding ELISA)” value [6] was 0.95.

B23: Phage-1223 (peptide)
peptide: YCDGHTGMYISKCL
modifications: cysteine pairing not given here; also: displayed on phage by fusion to pIII, linker and pIII sequence not given here
notes: as for B4
With B23 the “Anti-CD28 Fab signal in the presence of CD28 (phage binding ELISA)” value [5] was 0.06 and the “Anti-CD28 Fab signal (phage binding ELISA)” value [6] was 0.98.

B24: Phage-1219 (peptide)
peptide: YCDGHKPEYMDKCL
notes: as for B1
For B24, the “Anti-CD28 Fab signal in the presence of CD28” value [1] was 0.07 and the “Anti-CD28 Fab signal” value [2] was 0.99.

B25: Phage-1204 (peptide)
peptide: YCEGHAPQYMSKCL
modifications: cysteine pairing not given here; also: displayed on phage by fusion to pIII, linker and pIII sequence not given here
In the case of B25, the “Anti-CD28 Fab signal in the presence of CD28 (phage binding ELISA)” value [3] is reported as 0.08 and the “Anti-CD28 Fab signal (phage binding ELISA)” value [4] is reported as 1.04.

B26: Phage-1230 (peptide)
peptide: YCAGHLDVYMSKCL
modifications: cysteine pairing not given here; also: displayed on phage by fusion to pIII, linker and pIII sequence not given here
notes: as for B4
In the case of B26, the “Anti-CD28 Fab signal in the presence of CD28 (phage binding ELISA)” value [5] is reported as 0.09 and the “Anti-CD28 Fab signal (phage binding ELISA)” value [6] is reported as 0.96.

B27: Phage-1212 (peptide)
peptide: YCFGHAPEYLLKCL
notes: as for B1
With B27 the “Anti-CD28 Fab signal in the presence of CD28” value [1] was 0.08 and the “Anti-CD28 Fab signal” value [2] was 1.01.

B28: Phage-1226 (peptide)
peptide: YCQGHFPQYMAKCL
modifications: cysteine pairing not given here; also: displayed on phage by fusion to pIII, linker and pIII sequence not given here
notes: as for B4
For B28, the “Anti-CD28 Fab signal in the presence of CD28 (phage binding ELISA)” value [5] was 0.07 and the “Anti-CD28 Fab signal (phage binding ELISA)” value [6] was 0.97.

B29: Phage-1224 (peptide)
peptide: YCSGHSWAYIGKCL
modifications: cysteine pairing not given here; also: displayed on phage by fusion to pIII, linker and pIII sequence not given here
notes: as for B4
B29 was tested, and the “Anti-CD28 Fab signal in the presence of CD28 (phage binding ELISA)” value [5] was 0.07 and the “Anti-CD28 Fab signal (phage binding ELISA)” value [6] was 0.98.
